Laboratory results published in FireProtDB (doi:10.1021/bi047926u).
Values joined by “and” are separate entries in the source; they are usually repeats but may differ in a detail not shown here. Equal values may be shown once.

B1: Manganese-dependent inorganic pyrophosphatase, P37487 (parent)
chain: MEKILIFGHQNPDTDTICSAIAYADLKNKLGFNAEPVRLGQVNGETQYALDYFKQESPRLVETAANEVNGVILVDHNERQQSIKDIEEVQVLEVIDHHRIANFETAEPLYYRAEPVGCTATILNKMYKENNVKIEKEIAGLMLSAIISDSLLFKSPTCTDQDVAAAKELAEIAGVDAEEYGLNMLKAGADLSKKTVEELISLDAKEFTLGSKKVEIAQVNTVDIEDVKKRQAELEAVISKVVAEKNLDLFLLVITDILENDSLALAIGNEAAKVEKAFNVTLENNTALLKGVVSRKKQVVPVLTDAMAE

Variants of: B1
Conditions: Bacillus subtilis (strain 168); pH 7.2; Thermal; CD; TES-KOH 21 mM; KCl 4 mM; reversible: No; structure 1K23; whole UniProt chain shown

Variant	Tm
D203E	42 °C
D13E	44 °C and 42 °C
D149E	52 °C and 47 °C
H9Q	54 °C
H76Q	59 °C
H98Q	48 °C

Same assay, conditions: Bacillus subtilis (strain 168); pH 7.2; Thermal; CD; TES-KOH 21 mM; KCl 4 mM; transition: 3; reversible: No; structure 1K23; whole UniProt chain shown

Variant	Tm [°C]
D13E	69
